“And” between values parts separate entries of the source, which are not always exact repeats. Identical values can stand only once.

One assay addresses HLA B*07 (human). Put plainly: T2B7 HLA stabilisation assay, flow cytometry, peptide at 200 ug/ml.
Details: not given
(In general: Flow cytometry measures light scatter and fluorescence of single cells or particles in a stream.)
RPQRHDEKTL [WNVB7 0019]: the Avg. Fold Inc. @ 200 (fold over background) was found to be 2.8 and the Avg. MFI 200 came to 1640 MFI.
On to KPTGSASSLV [WNVB7 0015], for which the Avg. Fold Inc. @ 200 (fold over background) turned out to be 1.7 and the Avg. MFI 200 stood at 1070 MFI.
For PFPESNSPIS [WNVB7 3411], the Avg. Fold Inc. @ 200 (fold over background) stood at 1 and the Avg. MFI 200 stood at 627 MFI.
Consider AVKDELNTLL [WNVB7 0004], for which the Avg. Fold Inc. @ 200 (fold over background) came to 1 and the Avg. MFI 200 amounted to 842 MFI.
For VPGTKIAGML [WNVB7 0018] the same measures were 1.7 and 1090 MFI.
For TPGLRCLNLD [WNVB7 0024] the same measures were 1 and 850 MFI.
For AAKKKGASLL [WNVB7 0006] the same measures were 1.2 and 708 MFI.
Regarding GPGHEEPQLV [WNVB7 0011], the Avg. Fold Inc. @ 200 (fold over background) is 1 and the Avg. MFI 200 is 849 MFI.
For TPAAPSYTLK [WNVB7 0009] the same measures were 1.5 and 954 MFI.
SPHRVPNYNL [WNVB7 0020]: the Avg. Fold Inc. @ 200 (fold over background) is 2.5 and the Avg. MFI 200 is 1610 MFI.
For EPPEGVKYVL [WNVB7 0013] the same measures were 1.1 and 682 MFI.
For RPRWIDARVY [WNVB7 0017], in that order: 1.9 and 1710 MFI.
On to PEDIDCWCTK [WNVB7 3399], for which the Avg. Fold Inc. @ 200 (fold over background) came to 1.1 and the Avg. MFI 200 is 990 MFI.
For VPCRGQDELV [WNVB7 0010], in that order: 1 and 659 MFI.
For the molecule NPMILAAGLI [WNVB7 0007], the Avg. Fold Inc. @ 200 (fold over background) came out at 1.1 and the Avg. MFI 200 came out at 945 MFI.
For IPAGFEPEML [WNVB7 0008] the same measures were 1.9 and 1210 MFI.
For the molecule PETPQGLAKI [WNVB7 3403], the Avg. Fold Inc. @ 200 (fold over background) amounted to 1 and the Avg. MFI 200 worked out at 589 MFI.
On to RPAADGRTVM [WNVB7 0023], for which the Avg. Fold Inc. @ 200 (fold over background) was 1.5 and the Avg. MFI 200 turned out to be 979 MFI.
For PRTNTILEDN [WNVB7 3415] the same measures were 0.9 and 779 MFI.

A further assay deals with HLA B*07 (human). Put plainly: T2B7 HLA stabilisation assay, flow cytometry, 10/20/200 ug/ml, four assays.
Details: not given
RPQRHDEKTL [WNVB7 0019] yielded a Binding number (binding score) of 11 and a Binding results (total of four assays) (of 3 concentrations positive, in 1 assay) of 2.
The molecule KPTGSASSLV [WNVB7 0015] came in with a Binding number (binding score) of 6.
Molecule PFPESNSPIS [WNVB7 3411] returned a Binding number (binding score) of 1 and a Binding results (total of four assays) (of 3 concentrations positive, in 1 assay) of 1.
AVKDELNTLL [WNVB7 0004] yielded a Binding number (binding score) of 0.
Turning to VPGTKIAGML [WNVB7 0018], the Binding number (binding score) came to 6; the Binding results (total of four assays) (of 3 concentrations positive, in 1 assay) was 3 and 2.
Turning to TPGLRCLNLD [WNVB7 0024], the Binding number (binding score) came to 2.
On the same count and under the same terms, with AAKKKGASLL [WNVB7 0006] the figure was 4.
GPGHEEPQLV [WNVB7 0011] displayed a Binding number (binding score) of 2 and a Binding results (total of four assays) (of 3 concentrations positive, in 1 assay) of 2.
As for TPAAPSYTLK [WNVB7 0009], the Binding number (binding score) is 8; the Binding results (total of four assays) (of 3 concentrations positive, in 1 assay) is 3 and 1.
In turn, SPHRVPNYNL [WNVB7 0020] yielded a Binding number (binding score) of 12.
In the case of EPPEGVKYVL [WNVB7 0013], the Binding number (binding score) stood at 6; the Binding results (total of four assays) (of 3 concentrations positive, in 1 assay) is 3 and 2 and 1.
RPRWIDARVY [WNVB7 0017] registered a Binding number (binding score) of 11 and a Binding results (total of four assays) (of 3 concentrations positive, in 1 assay) of 2.
For PEDIDCWCTK [WNVB7 3399], in that order: 1 and 1.
In the case of VPCRGQDELV [WNVB7 0010], the Binding number (binding score) worked out at 4.
With NPMILAAGLI [WNVB7 0007], the Binding number (binding score) came out at 2.
Molecule IPAGFEPEML [WNVB7 0008] came in with a Binding number (binding score) of 10 and a Binding results (total of four assays) (of 3 concentrations positive, in 1 assay) of 1.
On to PETPQGLAKI [WNVB7 3403], for which the Binding number (binding score) amounted to 0.
The same measure, in the same setting: the result for RPAADGRTVM [WNVB7 0023] reads 12; that for PRTNTILEDN [WNVB7 3415], 0.

Still in this assay, the particulars now being: scale: of 3 concentrations positive, in 2 assays.
As for KPTGSASSLV [WNVB7 0015], the Binding results (total of four assays) is 2 and 1.
Still for that read-out and setting: the result for VPGTKIAGML [WNVB7 0018] reads 1; that for TPGLRCLNLD [WNVB7 0024], 1; that for TPAAPSYTLK [WNVB7 0009], 2.
The molecule VPCRGQDELV [WNVB7 0010] had a Binding results (total of four assays) of 2.
NPMILAAGLI [WNVB7 0007]: the Binding results (total of four assays) is 1.

The same assay, now with this note: scale: of 3 concentrations positive, in 3 assays.
For the molecule RPQRHDEKTL [WNVB7 0019], the Binding results (total of four assays) turned out to be 3.
Molecule RPRWIDARVY [WNVB7 0017] returned a Binding results (total of four assays) of 3.
IPAGFEPEML [WNVB7 0008] showed a Binding results (total of four assays) of 3.

Still in this assay, the particulars now being: scale: of 3 concentrations positive, in 4 assays.
Molecule AVKDELNTLL [WNVB7 0004] had a Binding results (total of four assays) of 0.
Still for that read-out and setting: with AAKKKGASLL [WNVB7 0006] the figure was 1; with SPHRVPNYNL [WNVB7 0020], 3.
Same read-out and setting: the result for PETPQGLAKI [WNVB7 3403] reads 0; that for RPAADGRTVM [WNVB7 0023], 3.
Same read-out and setting: the result for PRTNTILEDN [WNVB7 3415] reads 0.

For the origin of these results see patent US20050048073A1, “Methods of determining west nile virus epitopes and method of using the same” (priority 2001, published 2005).
